Test results: US20150246949A1, “Desmoglein 2 (DSG2) Binding Proteins and Uses Therefor” (UNIVERSITY OF WASHINGTON THROUGH ITS CENTER FOR …, priority 2012, published 2015)
Numbering of substitutions follows the chain as printed. Names may count otherwise.

Legend:
[1] = target: human DSG2 on cells (HeLa cells; polarized T84 cells) (human) (UniProt Q14126); assay: attachment of 3H-labelled Ad3 virus (competitor) to HeLa cells pre-incubated with the dimeric knob
[2] = target: human DSG2 on cells (HeLa cells; polarized T84 cells) (human) (UniProt Q14126); assay: cell-based or functional assay
[3] = target: T1, human DSG2 on cells (HeLa cells; polarized T84 cells) (human, UniProt Q14126 50-1118); assay: cell-based or functional assay
T1 sequence: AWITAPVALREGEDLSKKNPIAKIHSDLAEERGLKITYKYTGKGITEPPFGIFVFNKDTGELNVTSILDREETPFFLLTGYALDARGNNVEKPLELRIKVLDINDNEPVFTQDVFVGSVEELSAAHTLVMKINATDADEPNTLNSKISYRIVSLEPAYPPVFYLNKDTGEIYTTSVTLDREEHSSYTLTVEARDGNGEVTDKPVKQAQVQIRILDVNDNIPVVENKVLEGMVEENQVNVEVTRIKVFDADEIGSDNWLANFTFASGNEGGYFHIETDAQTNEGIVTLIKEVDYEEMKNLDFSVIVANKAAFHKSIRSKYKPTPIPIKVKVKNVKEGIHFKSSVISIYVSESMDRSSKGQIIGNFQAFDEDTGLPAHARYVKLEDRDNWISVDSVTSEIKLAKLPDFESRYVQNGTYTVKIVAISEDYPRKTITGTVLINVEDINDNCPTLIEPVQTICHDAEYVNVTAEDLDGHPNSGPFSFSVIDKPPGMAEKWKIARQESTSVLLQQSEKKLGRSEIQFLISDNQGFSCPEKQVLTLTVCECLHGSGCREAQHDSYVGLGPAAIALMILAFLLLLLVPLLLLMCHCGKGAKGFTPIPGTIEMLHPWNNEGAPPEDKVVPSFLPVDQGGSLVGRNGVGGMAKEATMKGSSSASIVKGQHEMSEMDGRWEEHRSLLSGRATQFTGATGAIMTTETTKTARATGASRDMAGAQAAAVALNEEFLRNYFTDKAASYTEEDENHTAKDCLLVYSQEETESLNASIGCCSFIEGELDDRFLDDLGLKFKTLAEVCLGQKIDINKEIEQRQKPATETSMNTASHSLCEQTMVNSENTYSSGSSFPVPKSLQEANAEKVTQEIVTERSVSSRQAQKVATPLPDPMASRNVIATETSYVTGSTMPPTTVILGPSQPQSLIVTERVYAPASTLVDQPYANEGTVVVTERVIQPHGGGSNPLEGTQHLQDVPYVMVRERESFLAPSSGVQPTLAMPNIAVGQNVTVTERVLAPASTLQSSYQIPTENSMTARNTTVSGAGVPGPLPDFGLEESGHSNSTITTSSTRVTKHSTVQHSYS

[4] = target: T1, human DSG2 on cells (HeLa cells; …); assay: cell-based or functional assay; remark: listed apart in the source
[5] = target: T2, Recombinant human DSG2 protein (Leinco Technologies) (human, UniProt Q14126 50-609); assay: not given; SPR on immobilised DSG2 by the context (FIG. 7)
T2 construct: also called soluble DSG2; soluble recombinant DSG2
T2 sequence: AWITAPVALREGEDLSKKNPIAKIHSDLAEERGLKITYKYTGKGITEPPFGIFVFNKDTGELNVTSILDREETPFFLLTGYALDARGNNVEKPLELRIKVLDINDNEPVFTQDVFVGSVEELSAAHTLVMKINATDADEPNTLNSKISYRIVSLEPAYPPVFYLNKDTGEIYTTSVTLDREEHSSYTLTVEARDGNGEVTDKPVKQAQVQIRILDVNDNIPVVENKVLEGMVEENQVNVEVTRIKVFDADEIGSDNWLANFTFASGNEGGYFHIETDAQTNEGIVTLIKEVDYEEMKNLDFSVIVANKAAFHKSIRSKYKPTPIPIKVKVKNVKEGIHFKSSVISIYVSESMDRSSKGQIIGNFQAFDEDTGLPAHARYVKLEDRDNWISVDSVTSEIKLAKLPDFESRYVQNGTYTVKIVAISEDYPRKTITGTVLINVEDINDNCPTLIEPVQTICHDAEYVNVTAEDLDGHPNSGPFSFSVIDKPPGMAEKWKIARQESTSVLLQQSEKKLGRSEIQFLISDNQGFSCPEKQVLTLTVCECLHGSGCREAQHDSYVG

[6] = target: T2, Recombinant human DSG2 protein (Leinco …); assay: SPR (BIAcore 3000), DSG2 immobilised on the sensor chip, knobs injected at 2.5 to 10 µg/ml, BIAeval
[7] = target: T2, Recombinant human DSG2 protein (Leinco …); assay: SPR (BIAcore 3000), DSG2 immobilised, BIAeval; as printed in this row, but kd/ka of the row gives 24.9 nM and paragraph 239 gives 405-fold over wt: the KD cells of Y250F and V239D look interchanged on the sheet
[8] = target: T2, Recombinant human DSG2 protein (Leinco …); assay: SPR (BIAcore 3000), DSG2 immobilised on CM4 chip, knob injected
DSG2 = target: T3, DSG2 (Homo sapiens, UniProt Q14126); assay: Surface plasmon resonance of non-dimerized Ad3 fiber knobs on immobilized DSG2; format: binding; details: knobs without dimerization domain
T3 construct: purchased Leinco Technologies, Inc. (St. Louis, Mo.)
T3 sequence (Q14126 50-609 limits assumed): T2 sequence
Description: FIG. 7. SPR analysis of non-dimerized Ad3 fiber knob interactions with DSG2. A) DSG2 was immobilized on sensorchips, and background was automatically subtracted from the control flow cell. The Ad3 fiber knobs (w/o dimerization domain: “noDD”) were injected for 3 minutes at 2.5 μg/ml followed by a 2.5 minutes dissociation period. B) Summary of SPR data. […] The extracted data are resumed in the table. Wt=Ad3 fiber knob without mutations
Acquisitions were done on a BIAcore 3000 instrument. HBS-N (GE-Healthcare, Pittsburgh, Pa.) supplemented with 2 mM CaCl2 was used as running buffer in all experiments at a flow rate of 5 μl/min Immobilization on CM4 sensorchip (BIAcore) was performed using DSG2 at 10 μg/ml diluted in 10 mM Acetate buffer pH 4.5 injected for 10 minutes on ethyl(dimethylaminopropyl) carbodiimide (EDC)/N-Hydroxysuccinimide (NHS) activated flow-cell. A control flow-cell was activated by (EDC/NHS) and inactivated by ethanolamine Different concentrations of Ad3 fiber knob proteins were injected for 3 minutes association followed by 2.5 minutes dissociation time, and the signal was automatically subtracted from the background of the ethanolamine deactivated EDC-NHS flow cell. Kinetic and affinity constants were calculated using the BIAeval software.

[9] = target: T2, Recombinant human DSG2 protein (Leinco …); assay: SPR (BIAcore 3000), DSG2 immobilised, BIAeval; as printed in this row, but kd/ka of the row gives 11.4 nM and paragraph 239 gives 885-fold over wt: the KD cells of Y250F and V239D look interchanged on the sheet
soluble CD46 = target: T4, soluble CD46 (UniProt P15529 35-343); assay: Western blot, soluble CD46 as probe, anti-CD46 mAb
T4 construct: also called sCD46
T4 sequence: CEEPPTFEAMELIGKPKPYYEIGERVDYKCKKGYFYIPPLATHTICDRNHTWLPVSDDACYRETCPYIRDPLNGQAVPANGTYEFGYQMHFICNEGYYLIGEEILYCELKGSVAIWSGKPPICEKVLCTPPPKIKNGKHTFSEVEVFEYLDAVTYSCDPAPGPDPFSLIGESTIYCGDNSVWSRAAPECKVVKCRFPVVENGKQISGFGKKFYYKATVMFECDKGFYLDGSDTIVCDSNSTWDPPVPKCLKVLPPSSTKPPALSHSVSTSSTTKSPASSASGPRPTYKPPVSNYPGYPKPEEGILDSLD

[10] = target: T2, Recombinant human DSG2 protein (Leinco …); assay: Western blot of the blotted knob probed with soluble hDSG2, anti-DSG2 (6D8), HRP-anti-mouse IgG [upper panel]

In the case of “dimeric Ad3 fiber knob mutant N186D, D261N, L296R (designed binder)”, the Inhibition of attachment in the presence of dimeric knob (JO-1 = 100%) [1] is reported as 18.5% and the Inhibition of infection in the presence of dimeric knob (JO-1 = 100%) [2] is reported as 0%.

B1: JO-1 (self-dimerizing trimeric wild-type Ad3 fiber knob) (designed binder)
chain: MKVSALKEKVSALKEKVSALKEKVSALKEKVSALKEGSGGGSGGGSGGGSNSIALKNNTLWTGPKPEANCIIEYGKQNPDSKLTLILVKNGGIVNGYVTLMGASDYVNTLFKNKNVSINVELYFDATGHILPDSSSLKTDLELKYKQTADFSARGFMPSTTAYPFVLPNAGTHNENYIFGQCYYKASDGALFPLEVTVMLNKRLPDSRTSYVMTFLWSLNAGLAPETTQATLITSPFTFSYIREDD
For B1, the “IC50 (read off the curve), % GFP-positive cells after Ad3-GFP infection of HeLa cells” value [3] was about 5 µg/mL and the “IC50 (read off the curve), GFP MFI after Ad3-GFP infection of HeLa cells” value [4] was about 0.6 µg/mL.

B2: JO-4 (affinity-enhanced version of JO-1) (designed binder)
chain: MRGSHHHHHHGSKVSALKEKVSALKEKVSALKEKVSALKEKVSALKEGSGGGSGGGSGGGSNSIALKNNTLWTGPKPEANCIIEYGKQNPDSKLTLILVKNGGIVNGYVTLMGASDYVNTLFKNKNVSINVELYFDATGHILPDSSSLKTDLELKYKQTADFSARGFMPSTTAYPFVLPNAGTHNENFIFGQCYYKASDGALFPLEVTVMLNKRLPDSRTSYVMTFLWSLNAGLAPETTQATLITSPFTFSYIREDD
For B2, the Kd [5] was 11.4 nM.

B3: Ad3 fiber knob mutant V239D without dimerization domain (ligand)
chain: NKLCSKLGNGLTFDSSNSIALKNNTLWTGPKPEANCIIEYGKQNPDSKLTLILVKNGGIVNGYVTLMGASDYVNTLFKNKNVSINVELYFDATGHILPDSSSLKTDLELKYKQTADFSARGFMPSTTAYPFDLPNAGTHNENYIFGQCYYKASDGALFPLEVTVMLNKRLPDSRTSYVMTFLWSLNAGLAPETTQATLITSPFTFSYIREDD
notes: range 108-319; also called V239D/noDD; not shown: N-terminal 6-His tag of pQE30 and linker
In the case of B3, the koff [6] is reported as 0.00266 s⁻¹, the kon [6] is reported as 107000 M⁻¹ s⁻¹ and the Kd [7] is reported as 11.4 nM. The “fold higher affinity than wt Ad3knob/noDD” value [8] was 405 fold.

B4: wt Ad3 knob: wild-type trimeric Ad3 fiber knob without the dimerization domain (protein)
chain: B3 chain with D132V
modifications: left off: small tags and cut ends
notes: wild-type trimeric Ad3 fiber knob without the dimerization domain
For B4, the “Association rate to DSG2” value (DSG2) was “slow association rate”.

B5: N293S/noDD (protein)
chain: B3 chain with D132V, N186S
modifications: left off: small tags and cut ends
For B5, the “Association rate to DSG2” value (DSG2) was “association rate was lowest”.

B6: Ad3 fiber knob mutant Y250F without dimerization domain (ligand)
chain: B3 chain with D132V, Y143F
notes: range 108-319; also called Y250F/noDD; not shown: N-terminal 6-His tag of pQE30 and linker
With B6 the koff [6] was 0.00264 s⁻¹, the kon [6] was 232000 M⁻¹ s⁻¹ and the “fold higher affinity than wt Ad3knob/noDD” value [8] was 885 fold. The Kd [9] was 24.9 nM.

B7: Ad3-S/Kn (ligand)
chain: NSIALKNNTLWTGPKPEANCIIEYGKQNPDSKLTLILVKNGGIVNGYVTLMGASDYVNTLFKNKNVSINVELYFDATGHILPDSSSLKTDLELKYKQTADFSARGFMPSTTAYPFVLPNAGTHNENYIFGQCYYKASDGALFPLEVTVMLNKRLPDSRTSYVMTFLWSLNAGLAPETTQATLITSPFTFSYIREDD
notes: also called wild-type Ad3 fibers
B7: no binding (soluble CD46); no binding [10].
